Data taken from patent US9878046B2, “Adverse side-effects associated with administration of an anti-hyaluronan agent and methods for ameliorating or preventing the side-effects” (Halozyme, Inc., priority 2010, dated 2018).
Entries after “also recorded” stand apart in the source; their conditions may differ.

Experiments:
[1] = Hyaluronidase activity (microturbidity assay), specific activity; assay type: biochemical
Procedure: Hyaluronidase activity of soluble rHuPH20 is measured by incubating soluble rHuPH20 with sodium hyaluronate (hyaluronic acid) for a set period of time (10 minutes) and then precipitating the undigested sodium hyaluronate with the addition of acidified serum albumin. The turbidity of the resulting sample is measured at 640 nm after a 30 minute development period.
Dilutions of the sample were prepared in Enzyme Diluent Solutions. The Enzyme Diluent Solution was prepared by dissolving 33.0±0.05 mg of hydrolyzed gelatin in 25.0 mL of the 50 mM PIPES Reaction Buffer (140 mM NaCl, 50 mM PIPES, pH 5.5) and 25.0 mL of sterile water for injection (SWFI), and diluting 0.2 mL of 25% Buminate solution into the mixture and vortexing for 30 seconds. This was performed within 2 hours of use and stored on ice until needed. The samples were diluted to an estimated 1-2 U/mL. […]
The MULTIDROP 384 was prepared to stop the reaction by priming the machine with Serum Working Solution and changing the volume setting to 240 μL. […] The plate was removed and shaken on a plate reader for 10 seconds. After a further 15 minutes, the turbidity of the samples was measured at 640 nm and the hyaluronidase activity (in U/mL) of each sample was determined by fitting to the standard curve.
Specific activity (Units/mg) was calculated by dividing the hyaluronidase activity (U/ml) by the protein concentration (mg/mL).

[2] = test system: hyaluronan present in the circulation; experiment: Plasma HA and catabolites (disaccharide assay) in patients; assay type: in vivo, human
Procedure: This Example describes a method for the determination of the HA-disaccharide content in plasma. The method employs the hydrolysis of HA with Chondroitinase ABC to release the HA-disaccharides, derivatize them with 2-amino acridone (AMAC) and analyze them on a reverse-phase HPLC coupled with fluorescence detection. Quantitation of the HA-disaccharides is accomplished by comparison with HA-disaccharide standards.
Next, the sample was hydrolyzed. The sample (e.g. plasma) was prepared by taking approximately 100 μg of protein in a polypropylene tube and adjusting the volume to 340 μl with water. A matrix blank also was prepared by taking dilution buffer (1.59 g HEPES, 5.07 g NaCl, 1800 mL water, pH 7.0) equal to the volume of the sample and adjusting the volume to 340 μl. Hydrolysis of the samples and matrix blank were effected by adding 60 μl of TFA to the sample tube and matrix blank tube and the contents were mix and incubated at 100° C. for 4 hours. The vials were allowed to cool to room temperature. The vials were evaporated to dryness using a speed vac. Then, 300 μl of water was added to each tube and vortexed to resuspend the samples. […]
The enzymatic activity of PEGPH20 was measured by monitoring concentrations of hyaluronan present in the circulation.

[3] = test system: tumor regions; experiment: Apparent diffusion coefficient MRI (ADC-MRI) of tumors; assay type: in vivo, human
Procedure: Scans were performed pre-treatment and post-treatment.
Apparent diffusion coefficient magnetic Resonance imaging (ADC-MRI) measures the volume of water that has moved across the cell membrane based upon a calculation derived from the pre- and post-treatment scans. ADC-MRI scans were completed for a total of 10 of the 14 patients in the study described in Example 6 and 4 of the 5 patients in the study described in Example 10. […] Increased ADC values are consistent with the mechanism of action of PEGPH20.

[4] = all scanned patients of both studies

B1: PEGPH20 (protein)
chain: LNFRAPPVIPNVPFLWAWNAPSEFCLGKFDEPLDMSLFSFIGSPRINATGQGVTIFYVDRLGYYPYIDSITGVTVNGGIPQKISLQDHLDKAKKDITFYMPVDNLGMAVIDWEEWRPTWARNWKPKDVYKNRSIELVQQQNVQLSLTEATEKAKQEFEKAGKDFLVETIKLGKLLRPNHLWGYYLFPDCYNHHYKKPGYNGSCFNVEIKRNDDLSWLWNESTALYPSIYLNTQQSPVAATLYVRNRVREAIRVSKIPDAKSPLPVFAYTRIVFTDQVLKFLSQDELVYTFGETVALGASGIVIWGTLSIMRSMKSCLLLDNYMETILNPYIINVTLAAKMCSQVLCQEQGVCIRKNWNSSDYLHLNPDNFAIQLEKGGKFTVRGKPTLEDLEQFSEKFYCSCYSTLSCKEKADVKDTDAVDVCIADGVCIDAFLKPPMETEEPQIFY
With B1 the final enzyme activity ([1]; PEGylated rHuPH20 material at 3.5 mg/mL) was 140,000 U/mL, the specific activity ([1]; rHuPH20 preparation vs PEGylated form) was “about 32,000 Units/mg” and the “HA catabolite levels over a week” value ([2]; 0.5 μg/kg to 1.5 μg/kg, 12 patients) was “increased in a dose-dependent manner”. The “plasma concentrations of hyaluronan” value ([2]; single 50 μg/kg dose) was “increased significantly”, the “Change in Tumor ADC-MRI from baseline” value ([3]; 0.5 μg/kg, 2x/wk, scan D3) was “no change” and the “Change in Tumor ADC-MRI from baseline” value ([3]; 0.5 μg/kg, 21 day cycle, individual patients, scan D3 or D4) was “decrease in lymph nodes; also recorded: increase”. For the same molecule, the “Change in Tumor ADC-MRI from baseline” value ([3]; 0.75 μg/kg, 21 day cycle, individual patients, scan D3 (D30)) was “increase; also recorded: no change”, the “Change in Tumor ADC-MRI from baseline” value ([3]; 1.0 μg/kg, 21 day cycle, scan D5) was “increase” and the “Change in Tumor ADC-MRI from baseline” value ([3]; 1.5 μg/kg, 21 day cycle, scan D3) was “no change”. The “Change in Tumor ADC-MRI from baseline” value ([3]; 50 μg/kg, scan D4) was “no change”, the “patients with ADC values decreased” value [3, 4] was 2 of 14 and the “patients with ADC values unchanged” value [3, 4] was 5 of 14. For the same molecule, the “patients with increases in ADC-MRI” value [3, 4] was 7 of 14.
